{
  "source": "patent US20100036106",
  "molecular_target": "Glutathione S-transferase (GST) (Schistosoma japonicum) (UniProt P08515)",
  "sequence (P08515 2-218)": "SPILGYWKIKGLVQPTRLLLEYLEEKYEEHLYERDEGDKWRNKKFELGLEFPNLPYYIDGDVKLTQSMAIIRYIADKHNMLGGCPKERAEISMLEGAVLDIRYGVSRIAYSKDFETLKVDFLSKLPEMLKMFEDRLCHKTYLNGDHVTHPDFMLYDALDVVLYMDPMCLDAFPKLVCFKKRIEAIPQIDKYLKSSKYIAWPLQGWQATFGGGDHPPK",
  "assay": "FP",
  "data": [
    {"sequence": "GGUAGAUACGAUGGANNNNNNNNNNNNNNNNNNNNNNNNNNNNNNCAUGACGCGCAGCCAA [18th RNA pool]", "values": [
      {"measurement": "Kd", "result": 400, "unit": "nM"}
    ]}
  ]
}
